Results as given in IntAct's records for PubMed 19966800.

B1: Cytotoxicity-associated immunodominant antigen (Helicobacter pylori), P55980 (parent)
chain: MTNETIDQTRTPDQTQSQTAFDPQQFINNLQVAFIKVDNVVASFDPDQKPIVDKNDRDNRQAFDGISQLREEYSNKAIKNPTKKNQYFSDFIDKSNDLINKDNLIDVESSTKSFQKFGDQRYQIFTSWVSHQKDPSKINTRSIRNFMENIIQPPIPDDKEKAEFLKSAKQSFAGIIIGNQIRTDQKFMGVFDESLKERQEAEKNGGPTGGDWLDIFLSFIFNKKQSSDVKEAINQEPVPHVQPDIATTTTDIQGLPPEARDLLDERGNFSKFTLGDMEMLDVEGVADIDPNYKFNQLLIHNNALSSVLMGSHNGIEPEKVSLLYAGNGGFGDKHDWNATVGYKDQQGNNVATLINVHMKNGSGLVIAGGEKGINNPSFYLYKEDQLTGSQRALSQEEIRNKVDFMEFLAQNNTKLDNLSEKEKEKFQNEIEDFQKDSKAYLDALGNDRIAFVSKKDTKHSALITEFNNGDLSYTLKDYGKKADKALDREKNVTLQGSLKHDGVMFVDYSNFKYTNASKNPNKGVGATNGVSHLEAGFNKVAVFNLPDLNNLAITSFVRRNLENKLTAKGLSLQEANKLIKDFLSSNKELAGKALNFNKAVAEAKSTGNYDEVKKAQKDLEKSLRKREHLEKEVEKKLESKSGNKNKMEAKAQANSQKDEIFALINKEANRDARAIAYTQNLKGIKRELSDKLEKISKDLKDFSKSFDEFKNGKNKDFSKAEETLKALKGSVKDLGINPEWISKVENLNAALNEFKNGKNKDFSKVTQAKSDLENSVKDVIINQKVTDKVDNLNQAVSVAKAMGDFSRVEQVLADLKNFSKEQLAQQAQKNEDFNTGKNSELYQSVKNSVNKTLVGNGLSGIEATALAKNFSDIKKELNEKFKNFNNNNNGLKNSTEPIYAKVNKKKTGQVASPEEPIYTQVAKKVNAKIDRLNQIASGLGGVGQAAGFPLKRHDKVDDLSKVGLSASPEPIYATIDDLGGPFPLKRHDKVDDLSKVGRSRNQELAQKIDNLNQAVSEAKAGFFGNLEQTIDKLKDSTKKNVMNLYVESAKKVPASLSAKLDNYAINSHTRINSNIQNGAINEKATGMLTQKNPEWLKLVNDKIVAHNVGSVSLSEYDKIGFNQKNMKDYSDSFKFSTKLNNAVKDIKSGFTHFLANAFSTGYYCLARENAEHGIKNVNTKGGFQKS

Variants of: B1
Conditions: with mark2_human MARK2, Q7KZI7
Sequence of mark2_human MARK2, Q7KZI7 (Q7KZI7 whole entry): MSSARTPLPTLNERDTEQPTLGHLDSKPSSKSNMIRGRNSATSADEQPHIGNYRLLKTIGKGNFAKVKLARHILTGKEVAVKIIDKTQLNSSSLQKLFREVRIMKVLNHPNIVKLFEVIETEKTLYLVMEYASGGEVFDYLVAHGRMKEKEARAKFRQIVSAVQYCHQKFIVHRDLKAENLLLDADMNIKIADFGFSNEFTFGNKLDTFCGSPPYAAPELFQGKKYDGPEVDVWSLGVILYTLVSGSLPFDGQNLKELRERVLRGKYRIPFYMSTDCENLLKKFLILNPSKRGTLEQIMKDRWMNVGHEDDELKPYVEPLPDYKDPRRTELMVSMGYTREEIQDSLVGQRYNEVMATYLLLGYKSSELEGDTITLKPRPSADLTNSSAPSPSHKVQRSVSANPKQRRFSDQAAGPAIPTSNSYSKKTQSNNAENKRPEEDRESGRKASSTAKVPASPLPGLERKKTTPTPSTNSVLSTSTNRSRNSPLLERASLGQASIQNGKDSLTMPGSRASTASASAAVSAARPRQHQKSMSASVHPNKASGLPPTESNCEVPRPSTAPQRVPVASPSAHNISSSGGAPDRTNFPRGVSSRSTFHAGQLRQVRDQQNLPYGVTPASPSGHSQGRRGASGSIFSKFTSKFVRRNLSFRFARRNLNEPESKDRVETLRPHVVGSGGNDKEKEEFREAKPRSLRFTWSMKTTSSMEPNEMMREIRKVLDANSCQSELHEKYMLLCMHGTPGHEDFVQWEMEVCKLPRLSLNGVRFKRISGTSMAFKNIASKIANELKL

Variant	effect of a mutation on the interaction
L959G	disrupting interaction
L950G	disrupting interaction
V956G	disrupting interaction
R952G	decreasing interaction
